This is an account of results in patent US20240093240, “GENE FUNCTION CONTROL BY NOVEL GUIDE NUCLEIC ACID MECHANISM” (NATIONAL UNIVERSITY CORPORATION KOBE UNIVERSITY, published 2024).

In data set [1] the target is T1, RsAgo (UniProt A4WYU7 A4WYU7:1-777).
T1 sequence: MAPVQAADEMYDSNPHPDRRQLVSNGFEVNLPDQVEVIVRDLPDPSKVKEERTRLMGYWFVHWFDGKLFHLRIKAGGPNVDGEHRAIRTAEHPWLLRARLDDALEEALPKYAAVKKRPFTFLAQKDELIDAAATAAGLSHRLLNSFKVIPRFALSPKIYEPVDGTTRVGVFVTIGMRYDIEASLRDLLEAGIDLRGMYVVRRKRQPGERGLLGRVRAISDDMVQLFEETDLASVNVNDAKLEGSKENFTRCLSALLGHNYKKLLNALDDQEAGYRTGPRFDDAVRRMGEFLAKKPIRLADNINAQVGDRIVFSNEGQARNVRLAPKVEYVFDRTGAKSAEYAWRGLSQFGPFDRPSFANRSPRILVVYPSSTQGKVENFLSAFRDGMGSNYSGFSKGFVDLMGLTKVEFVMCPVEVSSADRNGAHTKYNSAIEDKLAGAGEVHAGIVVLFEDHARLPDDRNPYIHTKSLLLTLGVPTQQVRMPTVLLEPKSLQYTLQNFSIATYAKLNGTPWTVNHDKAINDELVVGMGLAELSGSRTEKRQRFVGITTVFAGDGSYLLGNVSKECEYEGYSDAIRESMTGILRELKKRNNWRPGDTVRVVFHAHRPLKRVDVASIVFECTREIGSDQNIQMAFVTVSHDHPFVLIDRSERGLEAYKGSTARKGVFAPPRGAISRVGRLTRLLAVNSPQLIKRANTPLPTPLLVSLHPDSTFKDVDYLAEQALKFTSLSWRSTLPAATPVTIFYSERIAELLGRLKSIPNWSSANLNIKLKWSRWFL
The experiment in a line: EMSA; high affinity to 5'-P ssRNA; 5 mM MgCl2, 200 mM NaCl, 25 C. The note with it: tag removed by Ulp1 protease; label: 3'-FAM. The method, then: (§1) The purified protein and synthetic oligonucleotide were mixed in the presence of the above reaction buffer and incubated for 20 minutes at 25° C. […] Detection was performed with Blue light LED.
(Mobility shift assays separate free from complexed probe on a gel.)

In data set [2] the target is T1, RsAgo. Put plainly: EMSA; 20 mM HEPES-KOH pH 7.5, 200 mM NaCl, 5 mM MgCl2, 25 C. Particulars: tag removed by Ulp1 protease. The protocol: as §1
Data set [3] has as its target T1, RsAgo. The experiment in a line: EMSA; 500 nM RsAgo, 100 nM guide, 100-1000 nM target; 5 mM MgCl2, 25 C. Particulars: tag removed by Ulp1 protease; label: 3'-FAM; duplex with 18 nt mismatched bubble over the target site. The method, then:
(§2) The purified protein (final 500 nM) and labelled guide RNA (final 100 nM) were mixed in the presence of the above reaction buffer and incubated for 15 minutes at 25° C. to form a complex. The target DNA was added (final 100 to 1000 nM) thereto.

The target in data set [4] is T1, RsAgo. The experiment in a line: EMSA; cannot bind fully double stranded DNA on its own; 5 mM MgCl2, 25 C. Particulars: tag removed by Ulp1 protease; label: 3'-FAM. The method, then:
as §2

In the case of UUACAACCUACUACCUCG (ssRNA, 5'-phosphate) [ssRNA 18 nt 5'-phosphate guide], the binding result in the data set with RsAgo [1] is on record as “binds”. On to CGAGGTAGTAGGTTGTAA (ssDNA) [ssDNA 18 nt], for which the binding result with RsAgo [2] (label: 5'-FAM) is “binds”.

B1: ssRNA 18 nt 5'-phosphate guide ; bubble target, 18 nt unpaired (ssRNA ; structured_DNA)
RNA: UUACAACCUACUACCUCG
DNA 1: GGATAACAATTCCCCTCTAGAAGTGGTTCGTGCTTCAACATGGGTCATCACCATCATC
DNA 2: GATGATGGTGATGACCCATGCGAGGTAGTAGGTTGTAACTAGAGGGGAATTGTTATCC
modifications: 5'-phosphate
On to B1, for which the binding result with RsAgo [3] was “binds”.

B2: ssRNA 18 nt 5'-phosphate guide ; fully double stranded target (ssRNA ; dsDNA)
RNA: UUACAACCUACUACCUCG
DNA 1: GGATAACAATTCCCCTCTAGTTACAACCTACTACCTCGCATGGGTCATCACCATCATC
DNA 2: GATGATGGTGATGACCCATGCGAGGTAGTAGGTTGTAACTAGAGGGGAATTGTTATCC
modifications: 5'-phosphate
B2: the binding result with RsAgo [4] was “no binding”. As to UUACAACCUACUACCUCG (ssRNA) [ssRNA 18 nt 5'-OH], the binding result in the data set with RsAgo [2] (label: 3'-FAM) is given as “binds”.
